B1: ZNF263 (parent)
chain: PEASHLRFRRFRFQEAAGPREALS

Variants of: B1
Test: protein stability index of a GFP-peptide fusion (GPS, HEK-293T) (PSI 1-6); higher = more stable
Conditions: c terminus: a fixed tail appended
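Also: lentivirally expressed fusions sorted by FACS into six bins by GFP to DsRed ratio, PSI derived from sequencing read proportions per bin multiplied by bin number.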

Row | Variant | protein stability index
1 | G18L | 2.21
2 | G18N | 2.83
3 | G18D | 2.64
4 | G18S | 2.96
5 | G18T | 2.97
6 | G18Q | 2.81
7 | G18Y | 2.14
8 | G18I | 2.35
9 | G18E | 3.44
10 | G18M | 2.7
11 | G18H | 2.98
12 | G18F | 2.26
13 | G18P | 3.36
14 | G18A | 2.27
15 | G18K | 2.84
16 | G18R | 2.65
17 | G18C | 2.67
18 | G18W | 1.88
19 | G18V | 2.38
20 | S4F | 1.87
21 | S4G | 2.76
22 | S4D | 2.92
23 | S4R | 2.19
24 | S4V | 1.93

Row | Variant | protein stability index
25 | S4A | 2.4
26 | S4K | 2.04
27 | S4C | 2.87
28 | S4T | 2.76
29 | S4M | 3.15
30 | S4H | 2.04
31 | S4P | 3.78
32 | S4I | 1.7
33 | S4W | 3.12
34 | S4L | 1.83
35 | S4E | 2.97
36 | S4Y | 2.83
37 | S4N | 2.8
38 | S4Q | 2.19
39 | R7K | 2.92
40 | R7M | 2.84
41 | R7D | 2.78
42 | R7N | 3.08
43 | R7A | 3.14
44 | R7F | 2.28
45 | R7Y | 2.36
46 | R7Q | 2.75
47 | R7H | 2.93
48 | R7S | 2.68

Row | Variant | protein stability index
49 | R7V | 2.65
50 | R7P | 2.35
51 | R7E | 3.26
52 | R7C | 2.5
53 | R7W | 3.63
54 | R7L | 2.08
55 | R7I | 1.8
56 | R7G | 3.45
57 | R7T | 3.66
58 | R12T | 3.59
59 | R12Q | 4.36
60 | R12V | 3.61
61 | R12D | 3.93
62 | R12Y | 2.4
63 | R12S | 4.05
64 | R12H | 3.14
65 | R12L | 2.99
66 | R12G | 3.28
67 | R12M | 3.46
68 | R12N | 3.77
69 | R12P | 3.39
70 | R12C | 1.81
71 | R12K | 3.64
72 | R12A | 3.32

Row | Variant | protein stability index
73 | R12W | 2.56
74 | R12E | 5.03
75 | R12I | 2.33
76 | R12F | 2.19
77 | F8W | 1.94
78 | F8E | 3.98
79 | F8S | 3.21
80 | F8Y | 2.76
81 | F8H | 3.23
82 | F8D | 3.08
83 | F8T | 3.4
84 | F8P | 3.04
85 | F8M | 2.8
86 | F8I | 3.43
87 | F8K | 3.29
88 | F8C | 2.69
89 | F8R | 3.55
90 | F8L | 2.84
91 | F8V | 3.06
92 | F8G | 3.29
93 | F8A | 3.28
94 | F8N | 3.46
95 | R10H | 2.27
96 | R10E | 2.68

Row | Variant | protein stability index
97 | R10I | 1.86
98 | R10L | 2.49
99 | R10C | 2.28
100 | R10S | 2.72
101 | R10P | 2.11
102 | R10V | 1.26
103 | R10W | 3.23
104 | R10D | 3.29
105 | R10M | 3.12
106 | R10T | 2.93
107 | R10Q | 3.07
108 | R10F | 1.79
109 | R10G | 2.62
110 | R10Y | 1.91
111 | R10K | 2.65
112 | R10A | 2.18
113 | R10N | 2.35
114 | A16L | 2.57
115 | A16T | 2.11
116 | A16S | 3.54
117 | A16C | 2.19
118 | A16D | 2.99
119 | A16Y | 2.1
120 | A16I | 2.85

Row | Variant | protein stability index
121 | A16H | 3
122 | A16M | 2.15
123 | A16N | 2.69
124 | A16V | 2.31
125 | A16R | 2.88
126 | A16K | 2.61
127 | A16E | 2.36
128 | A16F | 1.59
129 | A16W | 2.65
130 | A16G | 2.43
131 | A16P | 3.25
132 | P19H | 2.73
133 | P19A | 2.71
134 | P19M | 2.8
135 | P19K | 2.73
136 | P19F | 1.76
137 | P19E | 3.39
138 | P19I | 2.04
139 | P19G | 3.11
140 | P19D | 2.8
141 | P19C | 2.21
142 | P19L | 1.95
143 | P19N | 2.63
144 | H5A | 2.61

Row | Variant | protein stability index
145 | H5R | 2.68
146 | H5I | 1.91
147 | H5K | 1.77
148 | H5N | 2.31
149 | H5C | 2.55
150 | H5F | 2.12
151 | H5T | 2.89
152 | H5P | 1.49
153 | H5D | 3.21
154 | H5M | 3.39
155 | H5Y | 1.95
156 | H5S | 2.29
157 | H5G | 2.44
158 | H5Q | 3.04
159 | H5W | 2.44
160 | H5L | 2.74
161 | H5V | 2.15
162 | H5E | 2.47
163 | A17E | 3.34
164 | A17M | 2.1
165 | A17D | 3.42
166 | A17R | 2.15
167 | A17H | 2.33
168 | A17I | 2.15

Row | Variant | protein stability index
169 | A17K | 2.94
170 | A17C | 2.14
171 | A17W | 2.69
172 | A17P | 2.55
173 | A17N | 2.78
174 | A17F | 1.88
175 | A17Q | 2.75
176 | A17T | 2.61
177 | A17V | 2.55
178 | A17S | 2.54
179 | A17G | 2.58
180 | A17Y | 2.04
181 | A17L | 2.21
182 | P1W | 2.08
183 | P1S | 3.74
184 | P1R | 2.97
185 | P1Q | 2.79
186 | P1N | 2.13
187 | P1Y | 2.3
188 | P1T | 2.44
189 | P1V | 1.85
190 | F11R | 4.91
191 | F11D | 3.66
192 | F11Q | 4.13

Row | Variant | protein stability index
193 | F11M | 3.61
194 | F11P | 4.66
195 | F11A | 3.25
196 | F11K | 3.85
197 | F11N | 4.33
198 | F11S | 3.53
199 | F11Y | 2.76
200 | F11G | 3.89
201 | F11C | 2.45
202 | F11L | 2.66
203 | F11H | 4.01
204 | F11T | 4.16
205 | F11I | 3.1
206 | F11W | 2.67
207 | F13K | 4.07
208 | F13A | 3.97
209 | F13Y | 2.3
210 | F13E | 3.86
211 | F13M | 3.59
212 | F13N | 3.8
213 | F13Q | 4.18
214 | F13R | 3.56
215 | F13W | 3.58
216 | F13S | 4.01

Row | Variant | protein stability index
217 | F13L | 2.65
218 | F13T | 4.15
219 | F13V | 3.61
220 | F13C | 2.75
221 | F13I | 3.28
222 | F13P | 3.9
223 | F13G | 4.17
224 | F13D | 4.81
225 | R9A | 3.18
226 | R9E | 2.21
227 | R9Y | 1.96
228 | R9F | 2.29
229 | R9C | 2.44
230 | R9T | 3.32
231 | R9D | 2.69
232 | R9L | 2.8
233 | R9I | 1.69
234 | R9N | 3.08
235 | R9S | 3.8
236 | R9H | 1.98
237 | R9M | 2.78
238 | R9K | 2.82
239 | R9G | 3.36
240 | R9Q | 3.44

Row | Variant | protein stability index
241 | R9V | 2.21
242 | R9W | 1.62
243 | A3C | 2.95
244 | A3D | 3.1
245 | A3I | 2.52
246 | A3M | 3.55
247 | A3R | 2.71
248 | A3F | 2.8
249 | A3Q | 2.55
250 | A3Y | 2.38
251 | A3W | 1.97
252 | A3P | 2.87
253 | A3H | 2.84
254 | A3K | 2
255 | A3E | 2.82
256 | A3T | 2.52
257 | A3L | 2.4
258 | A3G | 2.95
259 | A3N | 1.98
260 | A3S | 2.59
261 | A3V | 1.73
262 | Q14G | 3.68
263 | Q14L | 3.22
264 | Q14A | 1.81

Row | Variant | protein stability index
265 | Q14E | 3.23
266 | Q14V | 2.5
267 | Q14K | 3.34
268 | Q14C | 1.89
269 | Q14R | 2.59
270 | Q14S | 2.87
271 | Q14T | 2.88
272 | Q14Y | 2.26
273 | Q14P | 3.29
274 | Q14W | 2.87
275 | Q14M | 2.93
276 | Q14D | 4.9
277 | Q14N | 3
278 | Q14I | 1.78
279 | Q14H | 1.16
280 | E15G | 2.24
281 | E15H | 2.04
282 | E15I | 1.78
283 | E15R | 1.98
284 | E15V | 2.12
285 | E15S | 2.54
286 | E15K | 2.04
287 | E15P | 2.32
288 | E15M | 2.38

Row | Variant | protein stability index
289 | E15C | 2.31
290 | E15T | 2.74
291 | E15Y | 2.05
292 | E15W | 2.15
293 | E15N | 2.68
294 | E15F | 1.53
295 | E15A | 2.73
296 | E15L | 2.02
297 | E15D | 2.09
298 | E2S | 2.52
299 | E2K | 2.83
300 | E2A | 2.88
301 | E2D | 3.22
302 | E2Q | 2.11
303 | E2M | 1.75
304 | E2F | 1.73
305 | E2W | 1.52
306 | E2T | 2.4
307 | E2V | 2.12
308 | E2G | 2.12
309 | E2H | 2
310 | E2Y | 1.82
311 | E2L | 1.29
312 | E2R | 2.84

Row | Variant | protein stability index
313 | E2I | 1.72
314 | E2N | 2.52
315 | E2C | 1.08
316 | L6V | 3.36
317 | L6Y | 1.66
318 | L6P | 3.03
319 | L6K | 2.73
320 | L6A | 3.3
321 | L6T | 1.98
322 | L6W | 2.37
323 | L6N | 3.03
324 | L6I | 2.42
325 | L6M | 2.54
326 | L6F | 2.75
327 | L6C | 2.6
328 | L6G | 3.46
329 | L6E | 3.61
330 | L6H | 3.46
331 | L6Q | 3.63
332 | L6S | 3.23
333 | L6D | 3.62
334 | L6R | 3.06
